Measurements taken from the supplement of paper PMC7877785.
± gives the uncertainty stated by the source.

Experiment: self-splicing fitness, log relative to wild type (ln ratio); higher = more splicing; Tetrahymena group I intron in knt gene, E. coli kanamycin selection, DiMSum; sequences stand for … in CUCUCU…GGAGGGAAAAGUUAUCAGGCAUGCACCUGGUAGCUAGUCUUUAAACCAAUAGAUUGCAUCGGUUUAAAAGGCAAGACCGUCAAAUUGCGGGAAAGGGGUCAACAGCCGUUCAGUACCAAGUCUCAGGGGAAACUUUGAGAUGGCCUUGCAAAGGGUAUGGUAAUAAGCUGACGGACAUGGUCCUAACCACGCAGCCAAGUCCUAAGUCAACAGAUCUUCUGUUGAUAUGGAUGCAGUUCACAGACUAAAUGUCGGUCGGGGAAGAUGUAUUCUUCUCAUAAGAUAUAGUCGGACCUCUCCUUAAUGGGAGCUAGCGGAUGAAGUGAUGCAACACUGGAGCCGCUGGGAACUAAUUUGUAUGCGAAAGUAUAUUGAUUAGUUUUGGAGUACUCGUGGUCG
Outline: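 Six replicate transformations of E. coli BL21(DE3) with a pET-22b(+) library were grown overnight at 37°C or 30°C. The library randomised all eight P1ex-region intron nucleotides, the intron lying in the knt kanamycin-resistance gene, and plates were LB agar with or without 25 μg/mL kanamycin plus 100 μg/mL carbenicillin, 50 μM IPTG and 0.2% rhamnose. Pooled colonies were amplicon-sequenced on an Illumina HiSeq 2500, and fitness is the DiMSum error-weighted combination of wild-type-normalised replicate fold changes, kanamycin versus none.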

Sequence | self-splicing fitness (ln) (30 °C) | self-splicing fitness (ln) (37 °C)
CAUCAGCAAUAUUACGGCAG | -0.68 ± 0.076 | 0.196 ± 0.09
AUGCAGCAAUAUUACGGGUU | -1.98 ± 0.075 | -1.29 ± 0.096
AAUAAGCAAUAUUACGCCAA | -2.17 ± 0.21 | -1.46 ± 0.18
GCCAAGCAAUAUUACGAACU | -1.3 ± 0.18 | -0.873 ± 0.22
CGCUAGCAAUAUUACGUCAG | -1.4 ± 0.12 | -0.542 ± 0.14
CGCCAGCAAUAUUACGCCGG | -3.13 ± 0.2 | -3.21 ± 0.35
CAAUAGCAAUAUUACGCGAC | -2.2 ± 0.17 | -2.54 ± 0.38
UCAUAGCAAUAUUACGCUCA | -1.82 ± 0.15 | -0.493 ± 0.15
UCAGAGCAAUAUUACGCGGC |  | -3.08 ± 0.4
UGCUAGCAAUAUUACGAACU | -1.12 ± 0.15 | -0.251 ± 0.15
ACUCAGCAAUAUUACGCUUG | -1.83 ± 0.069 | -0.599 ± 0.083
AGCCAGCAAUAUUACGGCGU | -1.61 ± 0.09 | -1.44 ± 0.12
CGUGAGCAAUAUUACGCUAC |  | -0.816 ± 0.38
CCGGAGCAAUAUUACGGUAG | -2.71 ± 0.14 | -2.75 ± 0.21
UAAUAGCAAUAUUACGGUAU | -3.69 ± 0.21 | -2.68 ± 0.23
GUUAAGCAAUAUUACGUCCG | -1.77 ± 0.17 | -0.533 ± 0.23
AGCUAGCAAUAUUACGUGCC | -2.52 ± 0.36 | -1.84 ± 0.27
GUCUAGCAAUAUUACGCAGC | -2.29 ± 0.14 | -0.0809 ± 0.12
GGGAAGCAAUAUUACGUGAG | -0.751 ± 0.12 | -1.46 ± 0.12

Sequence | self-splicing fitness (ln) (30 °C) | self-splicing fitness (ln) (37 °C)
GGACAGCAAUAUUACGCCCA | -0.886 ± 0.45 | -0.212 ± 0.36
UCGGAGCAAUAUUACGGCUA |  | -1.32 ± 0.39
GACGAGCAAUAUUACGAUCC | -0.986 ± 0.21 | -0.739 ± 0.4
CCUCAGCAAUAUUACGUAGC | -3.9 ± 0.19 | -2.73 ± 0.28
UGUUAGCAAUAUUACGUGUG | -0.767 ± 0.12 | -0.724 ± 0.13
ACGCAGCAAUAUUACGUUCG | -1.24 ± 0.059 | -0.442 ± 0.068
CGGAAGCAAUAUUACGUCCA | -0.281 ± 0.097 | 0.585 ± 0.13
UUCGAGCAAUAUUACGGAGA | -1.63 ± 0.22 | -1.38 ± 0.22
UCGUAGCAAUAUUACGUCGU | -4.26 ± 0.32 | -1.25 ± 0.18
UUCAAGCAAUAUUACGAUAG | -1.81 ± 0.14 | -0.986 ± 0.17
AGUCAGCAAUAUUACGCACC | -0.932 ± 0.12 | 0.383 ± 0.13
UAGUAGCAAUAUUACGGGCU | -1.39 ± 0.2 | -2.47 ± 0.27
UUCUAGCAAUAUUACGAAAG |  | -2.87 ± 0.32
AACCAGCAAUAUUACGAAAG | -3.21 ± 0.16 | -1.99 ± 0.19
GGUGAGCAAUAUUACGACAA | -1.2 ± 0.26 | -0.76 ± 0.3
CCCUAGCAAUAUUACGUUUU | -3.59 ± 0.15 | -2.2 ± 0.14
GAGUAGCAAUAUUACGGCUG | -1.21 ± 0.19 | -1.54 ± 0.27
CCACAGCAAUAUUACGGGGU | -3.71 ± 0.098 | -2.53 ± 0.11
ACACAGCAAUAUUACGGAGU | -2.39 ± 0.087 | -2.01 ± 0.11
